Laboratory results as given in patent publication US20160108110A1 (Novartis, published 2016).
Numbering of substitutions follows the chain as printed.

T1: Human ANGPTL4(26-406)-FLAG-His6-Avi (human, UniProt Q9BY76 24-406, biotin on the C-terminal Avi tag in the biotinylated preparations (immobilised form in SET, ELISA and Octet))
T1 sequence: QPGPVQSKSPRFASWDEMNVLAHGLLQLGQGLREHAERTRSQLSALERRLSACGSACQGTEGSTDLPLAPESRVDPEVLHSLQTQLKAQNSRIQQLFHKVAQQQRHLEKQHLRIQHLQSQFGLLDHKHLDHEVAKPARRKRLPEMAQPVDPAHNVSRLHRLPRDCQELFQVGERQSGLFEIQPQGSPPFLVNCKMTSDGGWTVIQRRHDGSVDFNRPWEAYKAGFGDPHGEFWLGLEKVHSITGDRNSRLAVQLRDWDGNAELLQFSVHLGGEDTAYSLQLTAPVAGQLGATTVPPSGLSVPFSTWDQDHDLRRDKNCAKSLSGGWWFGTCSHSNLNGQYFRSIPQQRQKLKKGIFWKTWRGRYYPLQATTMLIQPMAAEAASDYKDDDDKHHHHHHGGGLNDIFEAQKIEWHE

T2: Human ANGPTL3(17-460)-FLAG-His-Avi (human, UniProt Q9Y5C1 17-460, biotin on the C-terminal Avi tag)
T2 construct: also called full length human ANGPTL3; hANGPTL3
T2 sequence: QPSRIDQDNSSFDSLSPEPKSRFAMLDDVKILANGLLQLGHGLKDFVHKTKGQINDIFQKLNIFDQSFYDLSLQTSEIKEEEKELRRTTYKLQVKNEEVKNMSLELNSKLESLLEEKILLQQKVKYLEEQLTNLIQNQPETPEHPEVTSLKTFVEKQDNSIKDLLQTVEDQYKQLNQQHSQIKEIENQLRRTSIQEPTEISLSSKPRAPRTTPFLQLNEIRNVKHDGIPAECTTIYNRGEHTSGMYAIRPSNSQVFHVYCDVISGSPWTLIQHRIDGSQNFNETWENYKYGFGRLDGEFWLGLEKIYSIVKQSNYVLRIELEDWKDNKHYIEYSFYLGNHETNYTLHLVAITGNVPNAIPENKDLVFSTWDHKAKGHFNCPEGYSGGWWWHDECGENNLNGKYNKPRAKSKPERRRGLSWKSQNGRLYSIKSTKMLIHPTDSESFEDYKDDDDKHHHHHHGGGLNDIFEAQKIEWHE

B1: MOR021823 (antibody, human IgG1, kappa, V domains shown)
VH: QVQLLESGGGLVQPGGSLRLSCAASGFTFSSYYLHWVRQAPGKGLEWVSYISGDGSSTYYADSVKGRFTISRDNSKNTLYLQMNSLRAEDTAVYYCARERSYAHDHWGQGTLVTVSS
VL: DIQMTQSPSSLSASVGDRVTITCRASQDIYIDLNWYQQKPGKAPKLLIYAASKLQSGVPSRFSGSGSGTDFTLTISSLQPEDFATYYCQQGYFLPQTFGQGTKVEIKR
notes: human IgG1
B2: MOR021830 (antibody, human IgG1, kappa, V domains shown)
VH: QVQLLESGGGLVQPGGSLRLSCAASGFTFSSYWMHWVRQAPGKGLEWVSGISYDGSSTNYADSVKGRFTISRDNSKNTLYLQMNSLRAEDTAVYYCARDSYIYDLHWGFDNWGQGTLVTVSS
VL: B1 VL with Y30S, I31S, D32Y, K53R, G91S, F93T, L94H, Q96Y
notes: human IgG1
B3: MOR021800 (antibody, human IgG1, lambda, V domains shown)
VH: QVQLVQSGAEVKKPGESLKISCKGSGYSFSTYWISWVRQMPGKGLEWMGIIDPSNSDTRYSPSFQGQVTISADKSISTAYLQWSSLKASDTAMYYCARVYGYVYMDVWGQGTLVTVSS
VL: DIELTQPPSVSVSPGQTASITCSGDNLGKKYAYWYQQKPGQAPVLVIYDKTKRPSGIPERFSGSNSGNTATLTISGTQAEDEADYYCASYDWYSSSYVFGGGTKLTVLG
notes: human IgG1
B4: MOR021795 (antibody, human IgG1, lambda, V domains shown)
VH: QVQLVQSGAEVKKPGSSVKVSCKASGGTFNSYAISWVRQAPGQGLEWMGGIIPLFGFANYAQKFQGRVTITADESTSTAYMELSSLRSEDTAVYYCARESYDPYAFDVWGQGTLVTVSS
VL: DIELTQPPSVSVSPGQTASITCSGDNLGKYSASWYQQKPGQAPVLVIHQDNNRPSGIPERFSGSNSGNTATLTISGTQAEDEADYYCASRAHSMHVVFGGGTKLTVLG
notes: human IgG1

molecular target: T1, Human ANGPTL4(26-406)-FLAG-His6-Avi; test: cell-based or functional assay

Row | Binder | EC50 (read off the curve) [1(E] | EC50 (read off the curve) [1(F]
1 | B1 | ~0.5 nM | 
2 | B2 |  | ~1 nM

molecular target: T1, Human ANGPTL4(26-406)-FLAG-His6-Avi; test: cell-based or functional assay; remark: another data set of the same source

Row | Binder | Reversal of human ANGPTL4 inhibition of human LPL EC50
3 | B3 | 1 nM
4 | B1 | 1 nM
5 | B2 | 4 nM
6 | B4 | 12 nM

molecular target: T2, Human ANGPTL3(17-460)-FLAG-His-Avi; test: direct ELISA on streptavidin-coated MSD plate: biotinylated antigen immobilised at 1 nM, antibody at 1 nM, detection with Sulfo-tagged goat anti-human IgG
Method: Direct ELISA assays were conducted to characterize antibody binding specificity of selected antibodies of the invention. The assay was performed as follows. A 384-well streptavidin-coated Meso Scale Discovery (MSD) plate was blocked by incubating the plate with 50 μL Blocking Buffer (PBS, pH 7.4, 5% w/v bovine serum albumin) per well at 22° C. for 1 hour with constant shaking (600 rpm). The blocked MSD plate was then washed 3 times with Wash Buffer (PBS, pH 7.4 and 0.05% v/v Tween-20) using a plate washer (BioTek). Following washing, biotinylated human ANGPTL4 proteins diluted in Assay Buffer (PBS, pH 7.4 without CaCl₂ or MgCl₂, 0.5% w/v fatty acid-free bovine serum albumin and 0.02% v/v Tween-20) were immobilized on the surface by incubation at 1 nM concentration (15 μL per well) at 22° C. for one hour: full length human ANGPTL4 (hANGPTL4), human ANGPTL4 coiled-coil domain (hANGPTL4-CCD) and full length human ANGPTL3 (hANGPTL3). The plate was then washed 3 times as described earlier. Antibody diluted to 1 nM concentration in Assay Buffer was then applied to the MSD plate […], and the plate was incubated for 1 hour at 22° C. with constant shaking (600 rpm). Bound antibodies were detected by adding 15 μL per well of a 1:500 dilution of Sulfo-tagged goat anti-human IgG. The plate was then incubated for one hour with constant shaking (600 rpm). The plate was washed 3 times, and then 15 μL/well of 1×MSD read buffer T was added and the plate was developed using a Sector Imager 6000 (Meso Scale Discovery). The data were transferred to Microsoft Excel for analysis and plotted using GraphPad Prism v6. […] An ANGPTL3-specific reference antibody was used as a positive control for the ANGPTL3 binding assay (FIG. 2).

Row | Binder | binding result
7 | B3 | no binding (tested: 1 nM)
8 | B1 | no binding (tested: 1 nM)
9 | B2 | no binding (tested: 1 nM)
10 | B4 | no binding (tested: 1 nM)

molecular target: T1, Human ANGPTL4(26-406)-FLAG-His6-Avi; test: SET assay (solution equilibrium titration, MSD), IgG
Method: SET assays were performed as follows. In a 96-well polypropylene plate, a constant concentration of ANGPTL4 antibody was mixed with different concentrations of non-biotinylated human, cyno, mouse, or rat full-length ANPGLT4 protein, or human ANGPTL4 N-terminal domain protein (5-fold serial dilution) and incubated at 22° C. for 14 hours with constant shaking (300 rpm). On a pre-blocked 384-well streptavidin-coated Meso Scale Discovery (MSD) plate biotinylated ANGPTL4 (full-length human, cyno, mouse, or rat ANGPTL4, or human ANGPTL4 N-terminal domain) protein (1 nM, 15 μL per well) was immobilized and washed thereafter.
The equilibrium binding reactions (15 μL per well) were applied to the MSD plate with immobilized ANGPTL4 and incubated for 20 min at 22° C. The unbound material was removed by washing the plate 3 times with wash buffer, and the captured antibody was detected by adding Sulfo-tagged goat anti-human IgG (Meso Scale Discovery). After washing MSD read buffer T was added and the plate was developed using a Sector Imager 6000 (Meso Scale Discovery). The data were transferred to Microsoft Excel for analysis and plotted using GraphPad Prism v6. The KD values were determined by fitting the data to the following equation: […]
where Bₘₐₓ is the signal when no ANGPTL4 protein is present in solution, CAb is the constant concentration of ANGPTL4 antibody in solution, CAg is the concentration of ANGPTL4 in solution, and KD is the equilibrium dissociation constant.

Row | Binder | Kd
11 | B3 | 0.017 nM
12 | B1 | 0.009 nM
13 | B2 | 0.026 nM
14 | B4 | 0.036 nM

molecular target: T1, Human ANGPTL4(26-406)-FLAG-His6-Avi; test: cell-based or functional assay; remark: another data set of the same source

Row | Binder | EC50 (read off the curve) [1(D]
15 | B3 | ~0.5 nM

molecular target: T1, Human ANGPTL4(26-406)-FLAG-His6-Avi; test: ForteBio Octet, biotinylated antigen on streptavidin sensor, antibody in solution
Method: Dissociation constants (KD) were determined for selected antibodies of the invention by using an Octet (ForteBio) kinetic binding assay. ForteBio 10× Kinetics Buffer (ForteBio, catalog number 18-5032) was diluted 10-fold with DPBS (Life Technologies, catalog number 14190-136), and the resulting solution was added (0.2 ml per well) to a 96-well plate (Greiner, catalog number 65520). Streptavidin sensors (ForteBio, catalog number 18-5020) were immersed in the solution and equilibrated for at least 10 min at room temperature. In a second 96-well plate (Greiner, catalog number 65520), sensors were washed in 1× Kinetics buffer, and then immersed in 200 ul of 25 nM biotinylated human ANGPTL4 or a biotinylated reference protein (for background substraction) for 1000 sec […] at room temperature. The sensors were then washed in 1× Kinetics buffer for 120 sec, and immersed in 200 ul of ANGPTL4 antibody diluted in 1× Kinetics buffer at various concentrations (serial 2-fold dilutions ranging from 25 nM to 0.4 nM), and antibody association was monitored for 480 seconds. The sensors were then transferred to a well containing 200 ul 1× Kinetics buffer, and antibody dissociation was monitored for 1200 seconds. Background-corrected association and dissociation curves were globally fitted by Octet Software (ForteBio) to generate association (kₒₙ) and dissociation (koff) rate constants, which in turn were used to calculate equilibrium dissociation constants (KD).

Row | Binder | Kd | koff | kon
16 | B3 | 0.134 nM | 5.6e-05 s⁻¹ | 420000 M⁻¹ s⁻¹
17 | B1 | 0.047 nM | 2.5e-05 s⁻¹ | 530000 M⁻¹ s⁻¹
18 | B2 | 0.069 nM | 1.5e-05 s⁻¹ | 210000 M⁻¹ s⁻¹
19 | B4 | 0.304 nM | 7.4e-05 s⁻¹ | 240000 M⁻¹ s⁻¹
